Consider two molecules from paper PMC8476121, “Structural insights into the activation of human calcium-sensing receptor” (eLife, 2021).

Data set [1] concerns the target T1, CaSR ECD (extracellular domain of human calcium-sensing receptor) (Homo sapiens, UniProt P41180).
T1 construct: human calcium-sensing receptor (CaSR), extracellular domain (VFT domain and cysteine rich domain); crystal structures of CaSR ECD (PDB 5K5T, 5K5S; Geng et al., 2016) are cited but not tied to this construct
Briefly: SPR; Biacore T200; CaSR ECD coupled to the chip by amino-carboxyl coupling; nanobody flowed at a series of concentrations (30 ul/min, association 90 s, dissociation 220 s); 25 C; 20 mM HEPES pH 7.4, 150 mM NaCl, 0.05% Tween 20. Particulars: both partners purified.

Data set [2] deals with the molecule itself. Briefly: cryo-EM structure; inactive state: CaSR in GDN/CHS micelles with NPS-2143 (NAM), 1 mM CaCl2 and a 1.2 molar excess of NB-2D11.

T1 sequence (P41180 whole entry, looked up, the tested form may be a part): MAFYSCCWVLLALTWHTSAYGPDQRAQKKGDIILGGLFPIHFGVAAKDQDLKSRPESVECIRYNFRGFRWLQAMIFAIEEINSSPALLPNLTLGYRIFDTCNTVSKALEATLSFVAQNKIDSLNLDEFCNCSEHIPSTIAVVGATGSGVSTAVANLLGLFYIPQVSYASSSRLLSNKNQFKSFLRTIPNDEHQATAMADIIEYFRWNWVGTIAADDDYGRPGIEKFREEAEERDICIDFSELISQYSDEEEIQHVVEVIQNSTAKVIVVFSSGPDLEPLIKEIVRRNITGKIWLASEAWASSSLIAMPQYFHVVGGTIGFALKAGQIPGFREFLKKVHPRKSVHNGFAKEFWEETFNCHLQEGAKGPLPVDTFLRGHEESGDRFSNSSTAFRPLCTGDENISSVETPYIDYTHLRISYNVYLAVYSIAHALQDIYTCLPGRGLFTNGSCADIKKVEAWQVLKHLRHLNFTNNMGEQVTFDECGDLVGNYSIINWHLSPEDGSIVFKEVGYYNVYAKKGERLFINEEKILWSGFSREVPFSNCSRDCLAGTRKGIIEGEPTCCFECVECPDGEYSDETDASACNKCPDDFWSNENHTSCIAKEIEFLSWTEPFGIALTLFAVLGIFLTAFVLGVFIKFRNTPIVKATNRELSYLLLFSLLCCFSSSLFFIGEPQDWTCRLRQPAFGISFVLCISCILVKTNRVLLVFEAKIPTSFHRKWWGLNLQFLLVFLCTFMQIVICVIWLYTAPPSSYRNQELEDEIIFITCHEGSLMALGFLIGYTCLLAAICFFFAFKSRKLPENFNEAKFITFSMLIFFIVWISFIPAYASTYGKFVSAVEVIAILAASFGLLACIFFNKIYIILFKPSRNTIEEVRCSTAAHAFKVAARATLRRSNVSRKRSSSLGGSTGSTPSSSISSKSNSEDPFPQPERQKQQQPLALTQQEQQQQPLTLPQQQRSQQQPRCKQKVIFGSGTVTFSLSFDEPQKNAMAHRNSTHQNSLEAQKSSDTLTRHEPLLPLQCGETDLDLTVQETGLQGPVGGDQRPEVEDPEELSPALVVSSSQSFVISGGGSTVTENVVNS

B1: NB-2D11 (camel nanobody) (VHH)
VHH: QVQLQESGGGSVQAGGSLRLSCAASGFPISTYDMGWFRQAPGKEREGVVGITDSFSIKYEDSVKGRFTISRDNAKNALYLQMNSLKPEDTGMYYCAAGDARWSLLLRAEQYNYWGQGTQVTVSS
notes: Cloned in pMECS with a PelB signal peptide; HA tag followed by 6x histidine tag at the C-terminus; Isolated from a phage display library of camels immunised with human CaSR; also called NB-D211; source: E. coli TOP10F' periplasm, purified (Ni-NTA, Superdex 75)
On to B1, for which the Kd in data set [1] is 0.24 nM.

B2: Human calcium-sensing receptor CaSR (1-870) with C-terminal Flag tag (receptor, UniProt P41180-1 20-870, looked up)
chain: YGPDQRAQKKGDIILGGLFPIHFGVAAKDQDLKSRPESVECIRYNFRGFRWLQAMIFAIEEINSSPALLPNLTLGYRIFDTCNTVSKALEATLSFVAQNKIDSLNLDEFCNCSEHIPSTIAVVGATGSGVSTAVANLLGLFYIPQVSYASSSRLLSNKNQFKSFLRTIPNDEHQATAMADIIEYFRWNWVGTIAADDDYGRPGIEKFREEAEERDICIDFSELISQYSDEEEIQHVVEVIQNSTAKVIVVFSSGPDLEPLIKEIVRRNITGKIWLASEAWASSSLIAMPQYFHVVGGTIGFALKAGQIPGFREFLKKVHPRKSVHNGFAKEFWEETFNCHLQEGAKGPLPVDTFLRGHEESGDRFSNSSTAFRPLCTGDENISSVETPYIDYTHLRISYNVYLAVYSIAHALQDIYTCLPGRGLFTNGSCADIKKVEAWQVLKHLRHLNFTNNMGEQVTFDECGDLVGNYSIINWHLSPEDGSIVFKEVGYYNVYAKKGERLFINEEKILWSGFSREVPFSNCSRDCLAGTRKGIIEGEPTCCFECVECPDGEYSDETDASACNKCPDDFWSNENHTSCIAKEIEFLSWTEPFGIALTLFAVLGIFLTAFVLGVFIKFRNTPIVKATNRELSYLLLFSLLCCFSSSLFFIGEPQDWTCRLRQPAFGISFVLCISCILVKTNRVLLVFEAKIPTSFHRKWWGLNLQFLLVFLCTFMQIVICVIWLYTAPPSSYRNQELEDEIIFITCHEGSLMALGFLIGYTCLLAAICFFFAFKSRKLPENFNEAKFITFSMLIFFIVWISFIPAYASTYGKFVSAVEVIAILAASFGLLACIFFNKIYIILFKPSRNTIE
notes: signal peptide in the construct; human calcium-sensing receptor (CaSR), residues 1-870, cDNA NM_000388.4; Flag printed as DYKDDDD; Cloned into a modified pEG BacMam vector; also called full-length CaSR; hCaSR; source: HEK293 GnTI- cells infected with baculovirus (BacMam), purified (anti-Flag M2, Mono Q, Superose 6) in GDN/CHS
Consider B2, for which the binding result in data set [2] is “binds”.
